# Assay results as given in patent publication US20200262877A1, “ION CHANNEL-BINDING PEPTIDES AND METHODS OF USE THEREOF” (priority 2017, published 2020).
# What was measured:
# α3β4 = target: T1, α3β4 (Homo sapiens, UniProt P30926+P32297); assay: Ion channel panel (IonWorks Barracuda): α3β4; format: cell-based; settings: 100% = no change, <100% = inhibition
# T1 construct: host or cells: HEK293 or CHO
# How it was run: (§1)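 Peptides were tested in duplicate at final 20 μM and 200 nM, with concentration set by amino acid analysis, in HEPES-buffered saline. They were applied for at least 5 min to HEK293 or CHO cells transfected with each channel. Currents were expressed as % inhibition, 1-(Ipeptide/Icontrol)×100, or % activation, Ipeptide/Icontrol×100, against a channel-matched reference compound.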
# TRPA1 = target: T2, TRPA1 (Homo sapiens, UniProt O75762); assay: Ion channel panel (IonWorks Barracuda): TRPA1; format: cell-based; settings: 100% = no change, <100% = inhibition
# T2 construct: host or cells: HEK293 or CHO
# How it was run: as §1
# Kir2.1 = target: T3, Kir2.1 (Homo sapiens, UniProt P63252); assay: Ion channel panel (IonWorks Barracuda): Kir2.1; format: cell-based; settings: 100% = no change, <100% = inhibition
# T3 construct: host or cells: HEK293 or CHO
# How it was run: as §1
# Nav1.5 = Nav1.5 (Homo sapiens, UniProt Q14524); assay: in vitro; settings: 100% = no change; for Activity of Nav1.5 with peptide, expressed as a percentage of the reference compound: peptide at 0.2 μM; for Activity of Nav1.5 with peptide (percentage of the reference compound): peptide at 20 μM
# Nav1.5, sequence (Q14524 whole entry): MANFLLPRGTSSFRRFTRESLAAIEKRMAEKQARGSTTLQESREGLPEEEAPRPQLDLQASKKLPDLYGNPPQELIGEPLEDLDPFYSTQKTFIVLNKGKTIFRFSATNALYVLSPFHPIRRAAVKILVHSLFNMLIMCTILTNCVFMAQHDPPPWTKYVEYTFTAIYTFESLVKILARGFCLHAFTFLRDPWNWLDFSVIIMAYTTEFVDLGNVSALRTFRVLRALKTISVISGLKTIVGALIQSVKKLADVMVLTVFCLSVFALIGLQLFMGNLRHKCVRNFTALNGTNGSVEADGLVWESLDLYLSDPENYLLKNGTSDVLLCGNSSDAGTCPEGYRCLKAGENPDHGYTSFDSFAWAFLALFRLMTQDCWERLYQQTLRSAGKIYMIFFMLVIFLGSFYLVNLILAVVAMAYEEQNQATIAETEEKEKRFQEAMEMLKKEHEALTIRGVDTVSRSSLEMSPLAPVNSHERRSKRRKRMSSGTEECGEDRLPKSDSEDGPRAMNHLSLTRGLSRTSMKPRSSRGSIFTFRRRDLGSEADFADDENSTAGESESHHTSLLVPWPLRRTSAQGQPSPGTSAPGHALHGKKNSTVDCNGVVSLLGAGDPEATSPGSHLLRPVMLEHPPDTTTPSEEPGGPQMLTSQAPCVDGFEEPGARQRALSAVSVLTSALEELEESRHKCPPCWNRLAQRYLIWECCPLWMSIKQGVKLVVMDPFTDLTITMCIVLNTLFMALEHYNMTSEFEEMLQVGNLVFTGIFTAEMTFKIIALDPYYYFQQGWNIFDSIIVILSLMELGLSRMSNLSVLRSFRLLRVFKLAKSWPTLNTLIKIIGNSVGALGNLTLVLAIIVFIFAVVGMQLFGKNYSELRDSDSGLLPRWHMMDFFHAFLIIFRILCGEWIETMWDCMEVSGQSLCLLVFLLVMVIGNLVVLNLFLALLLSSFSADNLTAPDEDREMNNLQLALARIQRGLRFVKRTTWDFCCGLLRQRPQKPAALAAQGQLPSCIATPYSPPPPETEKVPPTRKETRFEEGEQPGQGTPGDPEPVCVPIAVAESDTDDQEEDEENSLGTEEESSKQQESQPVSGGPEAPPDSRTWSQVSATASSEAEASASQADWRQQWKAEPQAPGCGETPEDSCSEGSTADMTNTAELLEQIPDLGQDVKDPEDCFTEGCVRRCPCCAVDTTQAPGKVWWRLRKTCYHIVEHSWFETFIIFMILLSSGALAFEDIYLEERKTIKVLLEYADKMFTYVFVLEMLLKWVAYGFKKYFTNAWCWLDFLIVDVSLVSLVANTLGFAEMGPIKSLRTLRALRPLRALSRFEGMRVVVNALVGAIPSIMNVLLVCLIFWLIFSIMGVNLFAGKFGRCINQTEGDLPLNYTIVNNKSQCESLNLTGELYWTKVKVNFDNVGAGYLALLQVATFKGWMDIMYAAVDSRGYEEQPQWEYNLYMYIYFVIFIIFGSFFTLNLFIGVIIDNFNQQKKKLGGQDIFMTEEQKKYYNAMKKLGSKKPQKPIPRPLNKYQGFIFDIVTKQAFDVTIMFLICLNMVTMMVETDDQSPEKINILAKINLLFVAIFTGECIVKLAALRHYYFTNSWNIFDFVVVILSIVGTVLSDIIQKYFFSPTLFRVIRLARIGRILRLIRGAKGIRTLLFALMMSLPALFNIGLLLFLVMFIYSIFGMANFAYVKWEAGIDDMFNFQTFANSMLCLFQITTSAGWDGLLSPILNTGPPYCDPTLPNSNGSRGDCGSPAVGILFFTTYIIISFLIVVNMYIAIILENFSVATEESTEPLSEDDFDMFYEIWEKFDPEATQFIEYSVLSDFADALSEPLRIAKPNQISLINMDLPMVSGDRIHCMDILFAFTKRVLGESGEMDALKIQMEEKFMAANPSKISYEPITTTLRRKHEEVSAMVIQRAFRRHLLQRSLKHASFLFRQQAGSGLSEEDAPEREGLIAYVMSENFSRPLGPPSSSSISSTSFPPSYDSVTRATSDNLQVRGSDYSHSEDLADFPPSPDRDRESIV
# How it was run: as §1
# hERG = hERG (Homo sapiens, UniProt Q12809); assay: in vitro; settings: 100% = no change, <100% = inhibition
# How it was run: as §1
# α4β2 = target: T4, α4β2 (Homo sapiens, UniProt P17787+P43681); assay: Ion channel panel (IonWorks Barracuda): α4β2; format: cell-based; settings: 100% = no change, <100% = inhibition
# T4 construct: host or cells: HEK293 or CHO
# T4 sequence (P43681 29-627): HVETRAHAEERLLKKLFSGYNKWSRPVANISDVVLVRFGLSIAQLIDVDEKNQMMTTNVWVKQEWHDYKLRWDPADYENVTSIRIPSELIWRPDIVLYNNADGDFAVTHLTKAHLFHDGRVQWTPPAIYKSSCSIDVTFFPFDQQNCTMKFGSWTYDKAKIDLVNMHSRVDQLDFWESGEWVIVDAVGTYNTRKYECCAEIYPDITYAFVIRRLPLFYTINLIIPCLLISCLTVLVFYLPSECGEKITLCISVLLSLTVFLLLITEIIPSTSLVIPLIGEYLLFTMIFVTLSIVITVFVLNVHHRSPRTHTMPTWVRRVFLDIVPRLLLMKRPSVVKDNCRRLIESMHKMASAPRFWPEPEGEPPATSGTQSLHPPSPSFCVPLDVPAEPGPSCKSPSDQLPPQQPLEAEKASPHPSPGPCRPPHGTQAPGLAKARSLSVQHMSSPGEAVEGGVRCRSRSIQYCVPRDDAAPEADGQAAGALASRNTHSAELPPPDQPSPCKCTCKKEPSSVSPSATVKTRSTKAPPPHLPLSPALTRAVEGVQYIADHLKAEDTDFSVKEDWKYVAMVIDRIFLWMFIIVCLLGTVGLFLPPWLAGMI
# T4 sequence (P17787 26-502): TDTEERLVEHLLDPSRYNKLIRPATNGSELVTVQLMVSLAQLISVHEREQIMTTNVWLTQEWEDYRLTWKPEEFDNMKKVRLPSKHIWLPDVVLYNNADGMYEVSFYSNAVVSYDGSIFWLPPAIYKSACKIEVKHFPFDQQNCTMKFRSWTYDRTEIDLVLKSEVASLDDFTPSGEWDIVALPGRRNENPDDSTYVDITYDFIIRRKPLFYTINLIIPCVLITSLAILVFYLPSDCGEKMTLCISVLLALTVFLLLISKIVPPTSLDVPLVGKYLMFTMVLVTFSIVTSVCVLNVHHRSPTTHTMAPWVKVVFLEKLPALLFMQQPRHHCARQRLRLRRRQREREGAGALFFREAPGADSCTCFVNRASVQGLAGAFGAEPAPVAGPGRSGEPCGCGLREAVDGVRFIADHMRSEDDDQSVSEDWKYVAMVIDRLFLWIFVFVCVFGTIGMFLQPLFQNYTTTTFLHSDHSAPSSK
# How it was run: as §1
# Cav2.1 = target: T5, Cav2.1 (Homo sapiens, UniProt O00555); assay: cell-based; settings: 100% = no change, <100% = inhibition
# T5 construct: host or cells: HEK293 or CHO
# How it was run: as §1
# Kv2.1 = target: T6, Kv2.1 (Homo sapiens, UniProt Q14721); assay: cell-based; settings: 100% = no change, <100% = inhibition
# T6 construct: host or cells: HEK293 or CHO
# How it was run: as §1
# Cav2.2 = target: T7, Cav2.2 (Homo sapiens, UniProt Q00975); assay: cell-based; settings: 100% = no change, <100% = inhibition
# T7 construct: host or cells: HEK293 or CHO
# How it was run: as §1
# NR2A = target: T8, NR2A (Homo sapiens, UniProt Q12879); assay: Ion channel panel (IonWorks Barracuda): NR2A; format: cell-based; settings: 100% = no change, <100% = inhibition
# T8 construct: host or cells: HEK293 or CHO
# How it was run: as §1
# 5HT3a = target: T9, 5HT3a (Homo sapiens, UniProt P46098); assay: Ion channel panel (IonWorks Barracuda): 5HT3a; format: cell-based
# T9 construct: host or cells: HEK293 or CHO
# T9 sequence (P46098 whole entry, looked up): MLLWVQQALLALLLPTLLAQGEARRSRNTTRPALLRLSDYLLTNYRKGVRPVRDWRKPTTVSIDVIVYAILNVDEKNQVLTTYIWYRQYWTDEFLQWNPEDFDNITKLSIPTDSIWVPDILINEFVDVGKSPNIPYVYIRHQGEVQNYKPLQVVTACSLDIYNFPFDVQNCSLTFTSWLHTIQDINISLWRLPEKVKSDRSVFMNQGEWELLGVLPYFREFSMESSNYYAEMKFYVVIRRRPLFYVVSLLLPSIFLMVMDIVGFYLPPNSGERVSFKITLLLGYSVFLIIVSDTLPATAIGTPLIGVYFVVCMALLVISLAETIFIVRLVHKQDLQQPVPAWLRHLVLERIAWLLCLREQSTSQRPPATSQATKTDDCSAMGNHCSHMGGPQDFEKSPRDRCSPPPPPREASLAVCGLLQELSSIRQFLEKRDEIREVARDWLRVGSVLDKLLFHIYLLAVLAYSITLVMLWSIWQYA
# How it was run: as §1
# Kv1.1 = target: T10, Kv1.1 (Homo sapiens, UniProt Q09470); assay: cell-based; format: cell-based; settings: 100% = no change, <100% = inhibition
# T10 construct: host or cells: HEK293 or CHO
# How it was run: as §1
# Kv1.3 = target: T11, Kv1.3 (Homo sapiens, UniProt P22001); assay: cell-based; format: cell-based; settings: 100% = no change, <100% = inhibition
# T11 construct: host or cells: HEK293 or CHO
# How it was run: as §1
# Kv1.2 = target: T12, Kv1.2 (Homo sapiens, UniProt P16389); assay: cell-based; format: cell-based; settings: 100% = no change, <100% = inhibition
# T12 construct: host or cells: HEK293 or CHO
# How it was run: as §1
# GABA = assay: Ion channel panel (IonWorks Barracuda): GABA; format: cell-based; settings: 100% = no change, <100% = inhibition
# How it was run: as §1
# Nav1.7 = target: T13, Nav1.7 (Homo sapiens, UniProt Q15858); assay: cell-based; format: cell-based; settings: 100% = no change; for Activity of Nav1.7 with peptide, expressed as a percentage of the reference compound: peptide at 0.2 μM; for Activity of Nav1.7 with peptide (percentage of the reference compound): peptide at 20 μM
# T13 construct: host or cells: HEK293 or CHO
# T13 sequence (Q15858 whole entry): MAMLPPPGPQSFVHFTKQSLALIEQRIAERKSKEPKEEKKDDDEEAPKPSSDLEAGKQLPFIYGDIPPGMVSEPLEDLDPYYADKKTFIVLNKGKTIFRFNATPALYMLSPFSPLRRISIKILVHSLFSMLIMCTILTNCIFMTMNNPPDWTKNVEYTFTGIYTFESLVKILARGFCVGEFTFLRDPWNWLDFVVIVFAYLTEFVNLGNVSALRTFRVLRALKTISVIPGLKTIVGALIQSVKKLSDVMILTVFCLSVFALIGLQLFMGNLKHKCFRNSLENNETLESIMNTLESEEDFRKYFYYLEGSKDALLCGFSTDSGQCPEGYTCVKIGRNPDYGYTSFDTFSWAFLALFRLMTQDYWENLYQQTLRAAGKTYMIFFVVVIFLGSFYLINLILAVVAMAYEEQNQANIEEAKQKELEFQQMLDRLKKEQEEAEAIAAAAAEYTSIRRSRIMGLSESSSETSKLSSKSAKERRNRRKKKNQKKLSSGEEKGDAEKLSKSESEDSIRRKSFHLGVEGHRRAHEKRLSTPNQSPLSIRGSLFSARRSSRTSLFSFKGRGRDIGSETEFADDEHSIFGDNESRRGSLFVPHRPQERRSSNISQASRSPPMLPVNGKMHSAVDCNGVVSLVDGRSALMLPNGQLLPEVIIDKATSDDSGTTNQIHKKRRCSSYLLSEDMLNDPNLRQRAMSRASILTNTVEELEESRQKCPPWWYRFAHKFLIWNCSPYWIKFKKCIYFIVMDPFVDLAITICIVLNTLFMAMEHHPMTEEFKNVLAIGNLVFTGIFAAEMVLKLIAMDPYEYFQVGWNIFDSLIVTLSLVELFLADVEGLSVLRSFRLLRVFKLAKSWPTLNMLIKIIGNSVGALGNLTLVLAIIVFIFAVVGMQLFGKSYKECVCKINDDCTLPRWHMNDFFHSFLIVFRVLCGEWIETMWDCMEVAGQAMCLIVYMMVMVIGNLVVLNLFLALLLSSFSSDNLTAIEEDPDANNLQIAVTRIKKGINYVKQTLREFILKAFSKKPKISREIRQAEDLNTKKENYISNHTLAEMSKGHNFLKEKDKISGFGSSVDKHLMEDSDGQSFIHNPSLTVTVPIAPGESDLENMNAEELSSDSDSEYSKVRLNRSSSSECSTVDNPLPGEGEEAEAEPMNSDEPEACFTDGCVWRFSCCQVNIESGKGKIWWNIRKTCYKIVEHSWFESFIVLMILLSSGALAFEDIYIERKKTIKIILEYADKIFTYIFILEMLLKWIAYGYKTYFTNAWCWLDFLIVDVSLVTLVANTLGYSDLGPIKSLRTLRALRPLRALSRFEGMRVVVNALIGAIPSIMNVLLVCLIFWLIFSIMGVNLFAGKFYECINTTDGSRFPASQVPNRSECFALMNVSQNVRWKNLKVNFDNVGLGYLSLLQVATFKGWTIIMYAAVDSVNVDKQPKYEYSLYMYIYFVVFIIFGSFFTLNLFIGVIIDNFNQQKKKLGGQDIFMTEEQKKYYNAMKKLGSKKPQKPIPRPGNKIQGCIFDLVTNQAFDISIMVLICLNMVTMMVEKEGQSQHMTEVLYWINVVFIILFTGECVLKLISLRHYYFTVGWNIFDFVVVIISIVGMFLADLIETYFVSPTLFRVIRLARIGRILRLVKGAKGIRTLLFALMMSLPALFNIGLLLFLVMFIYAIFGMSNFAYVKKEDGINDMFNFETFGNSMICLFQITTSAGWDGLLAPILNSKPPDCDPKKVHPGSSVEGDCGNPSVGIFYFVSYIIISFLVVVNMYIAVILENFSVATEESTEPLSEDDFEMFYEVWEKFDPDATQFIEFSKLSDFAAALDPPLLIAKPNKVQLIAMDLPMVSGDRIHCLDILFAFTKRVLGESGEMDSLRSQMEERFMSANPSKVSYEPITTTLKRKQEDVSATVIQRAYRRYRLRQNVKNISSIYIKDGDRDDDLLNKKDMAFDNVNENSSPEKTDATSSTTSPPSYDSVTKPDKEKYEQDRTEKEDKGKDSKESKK
# NR2B = target: T14, NR2B (Homo sapiens, UniProt Q13224); assay: Ion channel panel (IonWorks Barracuda): NR2B; format: cell-based; settings: 100% = no change, <100% = inhibition
# T14 construct: host or cells: HEK293 or CHO
# How it was run: as §1
# TRPV1 = target: T15, TRPV1 (Homo sapiens, UniProt Q8NER1); assay: Ion channel panel (IonWorks Barracuda): TRPV1; format: cell-based; settings: 100% = no change, <100% = inhibition
# T15 construct: host or cells: HEK293 or CHO
# How it was run: as §1
# [1] = first of two Nav1.5 columns (probably TP1)
# [2] = second of two Nav1.5 columns (probably TP2)
# [3] = first of two Nav1.7 columns (probably TP1)
# [4] = second of two Nav1.7 columns (probably TP2)
substance,measurement,setting,value
20 (GSQIDTNVKCSGSSKCVKICIDRYNTRGAKCINGRCTCYP) [compound 20],"Activity of a3b4 with peptide, expressed as a percentage of the reference compound",α3β4; peptide at 0.2 μM,103%
same,Activity of a3b4 with peptide (percentage of the reference compound),α3β4; peptide at 20 μM,94%
same,"Activity of TRPA1 with peptide, expressed as a percentage of the reference compound",TRPA1; peptide at 0.2 μM,114%
same,Activity of TRPA1 with peptide (percentage of the reference compound),TRPA1; peptide at 20 μM,114%
same,"Activity of Kir2.1 with peptide, expressed as a percentage of the reference compound",Kir2.1; peptide at 0.2 μM,89%
same,Activity of Kir2.1 with peptide (percentage of the reference compound),Kir2.1; peptide at 20 μM,95%
same,"Activity of Nav1.5 with peptide, expressed as a percentage of the reference compound",Nav1.5; [1],103%
same,"Activity of Nav1.5 with peptide, expressed as a percentage of the reference compound",Nav1.5; [2],101%
same,Activity of Nav1.5 with peptide (percentage of the reference compound),Nav1.5; [1],102%
same,Activity of Nav1.5 with peptide (percentage of the reference compound),Nav1.5; [2],105%
same,"Activity of hERG with peptide, expressed as a percentage of the reference compound",hERG; peptide at 0.2 μM,90%
same,Activity of hERG with peptide (percentage of the reference compound),hERG; peptide at 20 μM,87%
same,"Activity of a4b2 with peptide, expressed as a percentage of the reference compound",α4β2; peptide at 0.2 μM,113%
same,Activity of a4b2 with peptide (percentage of the reference compound),α4β2; peptide at 20 μM,92%
same,"Activity of Cav2.1 with peptide, expressed as a percentage of the reference compound",Cav2.1; peptide at 0.2 μM,100%
same,Activity of Cav2.1 with peptide (percentage of the reference compound),Cav2.1; peptide at 20 μM,116%
same,"Activity of Kv2.1 with peptide, expressed as a percentage of the reference compound",Kv2.1; peptide at 0.2 μM,99%
same,Activity of Kv2.1 with peptide (percentage of the reference compound),Kv2.1; peptide at 20 μM,97%
same,"Activity of Cav2.2 with peptide, expressed as a percentage of the reference compound",Cav2.2; peptide at 0.2 μM,110%
same,Activity of Cav2.2 with peptide (percentage of the reference compound),Cav2.2; peptide at 20 μM,105%
same,"Activity of NR2A with peptide, expressed as a percentage of the reference compound",NR2A; peptide at 0.2 μM,98%
same,Activity of NR2A with peptide (percentage of the reference compound),NR2A; peptide at 20 μM,104%
same,Activity of 5HT3a with peptide (percentage of the reference compound),5HT3a,91%
same,"Activity of 5HT3a with peptide, expressed as a percentage of the reference compound",5HT3a,96%
same,"Activity of Kv1.1 with peptide, expressed as a percentage of the reference compound",Kv1.1; peptide at 0.2 μM,94%
same,Activity of Kv1.1 with peptide (percentage of the reference compound),Kv1.1; peptide at 20 μM,95%
same,"Activity of Kv1.3 with peptide, expressed as a percentage of the reference compound",Kv1.3; peptide at 0.2 μM,80%
same,Activity of Kv1.3 with peptide (percentage of the reference compound),Kv1.3; peptide at 20 μM,7%
same,"Activity of Kv1.2 with peptide, expressed as a percentage of the reference compound",Kv1.2; peptide at 0.2 μM,115%
same,Activity of Kv1.2 with peptide (percentage of the reference compound),Kv1.2; peptide at 20 μM,74%
same,"Activity of GABA with peptide, expressed as a percentage of the reference compound",GABA; peptide at 0.2 μM,109%
same,Activity of GABA with peptide (percentage of the reference compound),GABA; peptide at 20 μM,106%
same,"Activity of Nav1.7 with peptide, expressed as a percentage of the reference compound",Nav1.7; [3],92%
same,"Activity of Nav1.7 with peptide, expressed as a percentage of the reference compound",Nav1.7; [4],59%
same,Activity of Nav1.7 with peptide (percentage of the reference compound),Nav1.7; [3],81%
same,Activity of Nav1.7 with peptide (percentage of the reference compound),Nav1.7; [4],95%
same,"Activity of NR2B with peptide, expressed as a percentage of the reference compound",NR2B; peptide at 0.2 μM,104%
same,Activity of NR2B with peptide (percentage of the reference compound),NR2B; peptide at 20 μM,92%
same,"Activity of TRPV1 with peptide, expressed as a percentage of the reference compound",TRPV1; peptide at 0.2 μM,109%
same,Activity of TRPV1 with peptide (percentage of the reference compound),TRPV1; peptide at 20 μM,102%
